Measured values: publication PMC11626169

T1: GST-HY5 (Arabidopsis thaliana, UniProt O24646 1-168)
T1 sequence: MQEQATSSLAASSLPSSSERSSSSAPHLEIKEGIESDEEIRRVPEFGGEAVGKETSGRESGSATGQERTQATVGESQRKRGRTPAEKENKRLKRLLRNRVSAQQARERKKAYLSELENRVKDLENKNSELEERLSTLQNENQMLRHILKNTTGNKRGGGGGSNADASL


Molecular target: T1, GST-HY5
Experiment: EMSA

Row | Binder | binding result
1 | NST3 promoter Probe 1 (dsDNA) DNA 1: CATGACATTACACGTCAAAAGAAATATGTCTTACGTCAGAACTTACGTAT DNA 2: ATACGTAAGTTCTGACGTAAGACATATTTCTTTTGACGTGTAATGTCATG | binds
2 | NST3 promoter Probe 2 (dsDNA) DNA 1: AATTAACATGGTAGAATGTAGATGACGTAGATCATGAAACGAGTGTGTGA DNA 2: TCACACACTCGTTTCATGATCTACGTCATCTACATTCTACCATGTTAATT | binds
